Laboratory results published in US20120172295A1 (INDIANA UNIVERSITY RESEARCH AND TECHNOLOGY, published 2012).
Read-outs that look alike come from different tables or passages of the source. Starred links: 1 amine or outer side, 2 acyl side, 3 side chain; linkers in the order of their positions; H or OH if unused. Positions of bridges follow the written chain, without caps; N, C: chain ends. Non-standard residues stand in square brackets, D forms with d. Groups on a side chain read outwards from the residue. No end group written: not given here. *: point of attachment. γGlu = O=C(O)[C@H](CCC(=O)[*:2])N[*:1]; Palmitoyl = CCCCCCCCCCCCCCCC(=O)*; Aib = CC(C)(N)C(=O)O

How the values were obtained:
Assay in all cases: cell-based or functional assay
GLP-1 receptor [1] = target: T1, GLP-1 receptor (UniProt P43220 24-463, limits assumed)
glucagon receptor [2] = target: T2, glucagon receptor (UniProt P47871 26-477, limits assumed)
T2 sequence (P47871 26-477 limits assumed): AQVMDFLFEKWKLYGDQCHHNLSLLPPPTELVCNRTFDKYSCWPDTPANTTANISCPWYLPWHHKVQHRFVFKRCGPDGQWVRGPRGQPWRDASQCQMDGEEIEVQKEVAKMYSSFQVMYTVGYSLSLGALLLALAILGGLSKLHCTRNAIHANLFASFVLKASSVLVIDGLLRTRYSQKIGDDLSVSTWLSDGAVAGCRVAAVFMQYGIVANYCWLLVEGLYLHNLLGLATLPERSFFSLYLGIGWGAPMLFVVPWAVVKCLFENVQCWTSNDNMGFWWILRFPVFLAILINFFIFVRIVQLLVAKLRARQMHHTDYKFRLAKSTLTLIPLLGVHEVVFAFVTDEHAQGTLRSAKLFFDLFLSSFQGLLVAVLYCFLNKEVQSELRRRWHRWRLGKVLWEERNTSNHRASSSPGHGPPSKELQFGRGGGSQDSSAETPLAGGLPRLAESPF

GLP-1 receptor [3] = target: T1, GLP-1 receptor; remark: listed apart in the source
glucagon receptor [4] = target: T2, glucagon receptor; remark: listed apart in the source
GLP-1 receptor [5] = target: T1, GLP-1 receptor; remark: listed apart in the source
glucagon receptor [6] = target: T2, glucagon receptor; remark: listed apart in the source
GLP-1 receptor [7] = target: T1, GLP-1 receptor; remark: listed apart in the source
glucagon receptor [8] = target: T2, glucagon receptor; remark: listed apart in the source
GIP receptor [9] = target: T3, GIP receptor (UniProt P48546 22-466)
T3 sequence (looked up): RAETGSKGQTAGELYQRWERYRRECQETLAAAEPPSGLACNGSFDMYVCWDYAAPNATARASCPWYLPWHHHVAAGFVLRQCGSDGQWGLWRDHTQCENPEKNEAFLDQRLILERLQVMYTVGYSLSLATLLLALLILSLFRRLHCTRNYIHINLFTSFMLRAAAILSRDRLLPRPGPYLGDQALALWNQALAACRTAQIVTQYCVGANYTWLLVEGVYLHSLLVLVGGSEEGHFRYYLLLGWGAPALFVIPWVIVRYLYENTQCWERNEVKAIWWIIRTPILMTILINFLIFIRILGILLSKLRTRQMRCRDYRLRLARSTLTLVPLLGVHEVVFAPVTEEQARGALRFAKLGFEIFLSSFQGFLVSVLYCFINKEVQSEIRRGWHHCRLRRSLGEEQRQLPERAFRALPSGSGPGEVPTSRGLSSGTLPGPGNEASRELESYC

GLP-1 receptor [10] = target: T1, GLP-1 receptor; remark: listed apart in the source
glucagon receptor [11] = target: T2, glucagon receptor; remark: listed apart in the source
GIP receptor [12] = target: T3, GIP receptor; remark: listed apart in the source
GLP-1 receptor [13] = target: T1, GLP-1 receptor; remark: listed apart in the source
glucagon receptor [14] = target: T2, glucagon receptor; remark: listed apart in the source
GIP receptor [15] = target: T3, GIP receptor; remark: listed apart in the source
GLP-1 receptor [16] = target: T1, GLP-1 receptor; remark: listed apart in the source
glucagon receptor [17] = target: T2, glucagon receptor; remark: listed apart in the source
GLP-1 receptor [18] = target: T1, GLP-1 receptor; remark: listed apart in the source
glucagon receptor [19] = target: T2, glucagon receptor; remark: listed apart in the source
GLP-1 receptor [20] = target: T1, GLP-1 receptor; remark: listed apart in the source

## HSQGTFTSDYSRYLDSRRAQDFVQWLMNK [Glucagon R12 K29]
GLP-1 receptor [1]
  cAMP induction EC50: 0.41 nM
Glucagon receptor [2]
  cAMP induction EC50: 0.81 nM

B1: peptide of SEQ ID NO: 555 (peptide)
peptide: YSQGTFTSDYSKYLDEQAAKEFVNWLMNGGPSSGAPPPS-NH2
modifications: lactam 16-20; N-terminus assumed
SMILES: CSCC[C@H](NC(=O)[C@H](CC(C)C)NC(=O)[C@H](Cc1c[nH]c2ccccc12)NC(=O)[C@H](CC(N)=O)NC(=O)[C@@H](NC(=O)[C@H](Cc1ccccc1)NC(=O)[C@H](CCC(=O)O)NC(=O)[C@@H]1CCCCNC(=O)CC[C@H](NC(=O)[C@H](CC(=O)O)NC(=O)[C@H](CC(C)C)NC(=O)[C@H](Cc2ccc(O)cc2)NC(=O)[C@H](CCCCN)NC(=O)[C@H](CO)NC(=O)[C@H](Cc2ccc(O)cc2)NC(=O)[C@H](CC(=O)O)NC(=O)[C@H](CO)NC(=O)[C@@H](NC(=O)[C@H](Cc2ccccc2)NC(=O)[C@@H](NC(=O)CNC(=O)[C@H](CCC(N)=O)NC(=O)[C@H](CO)NC(=O)[C@@H](N)Cc2ccc(O)cc2)[C@@H](C)O)[C@@H](C)O)C(=O)N[C@@H](CCC(N)=O)C(=O)N[C@@H](C)C(=O)N[C@@H](C)C(=O)N1)C(C)C)C(=O)N[C@@H](CC(N)=O)C(=O)NCC(=O)NCC(=O)N1CCC[C@H]1C(=O)N[C@@H](CO)C(=O)N[C@@H](CO)C(=O)NCC(=O)N[C@@H](C)C(=O)N1CCC[C@H]1C(=O)N1CCC[C@H]1C(=O)N1CCC[C@H]1C(=O)N[C@@H](CO)C(N)=O
GLP-1 receptor [3]
  EC50: 0.062 nM
Glucagon receptor [4]
  EC50: 0.044 nM

## H[Aib]QGTFTSDK([Trp-Palmitoyl])SKYLD[Aib]RRA[Aib]DFVC(PEG 40 kDa)WLMNT-NH2 [Glucagon (1-29a) Aib2 Lys10-Trp-C16 Aib16 Aib20 Cys24-40 kD]
GLP-1 receptor [5]
  EC50: 0.6 nM
Glucagon receptor [6]
  EC50: 2.37 nM

B2: Peptide 901 (peptide)
peptide: H[Aib]QGTFTSDK([γGlu-γGlu-Palmitoyl])SKYLD[Aib]RRAQDFVQWLMNTGPSSGAPPPS-NH2
modifications: N-terminus assumed
SMILES: CCCCCCCCCCCCCCCC(=O)N[C@@H](CCC(=O)N[C@@H](CCC(=O)NCCCC[C@H](NC(=O)[C@H](CC(=O)O)NC(=O)[C@H](CO)NC(=O)[C@@H](NC(=O)[C@H](Cc1ccccc1)NC(=O)[C@@H](NC(=O)CNC(=O)[C@H](CCC(N)=O)NC(=O)C(C)(C)NC(=O)[C@@H](N)Cc1c[nH]cn1)[C@@H](C)O)[C@@H](C)O)C(=O)N[C@@H](CO)C(=O)N[C@@H](CCCCN)C(=O)N[C@@H](Cc1ccc(O)cc1)C(=O)N[C@@H](CC(C)C)C(=O)N[C@@H](CC(=O)O)C(=O)NC(C)(C)C(=O)N[C@@H](CCCNC(=N)N)C(=O)N[C@@H](CCCNC(=N)N)C(=O)N[C@@H](C)C(=O)N[C@@H](CCC(N)=O)C(=O)N[C@@H](CC(=O)O)C(=O)N[C@@H](Cc1ccccc1)C(=O)N[C@H](C(=O)N[C@@H](CCC(N)=O)C(=O)N[C@@H](Cc1c[nH]c2ccccc12)C(=O)N[C@@H](CC(C)C)C(=O)N[C@@H](CCSC)C(=O)N[C@@H](CC(N)=O)C(=O)N[C@H](C(=O)NCC(=O)N1CCC[C@H]1C(=O)N[C@@H](CO)C(=O)N[C@@H](CO)C(=O)NCC(=O)N[C@@H](C)C(=O)N1CCC[C@H]1C(=O)N1CCC[C@H]1C(=O)N1CCC[C@H]1C(=O)N[C@@H](CO)C(N)=O)[C@@H](C)O)C(C)C)C(=O)O)C(=O)O
GLP-1 receptor [7]
  % Relative activity: 460%
Glucagon receptor [8]
  % Relative activity: 560%
GIP receptor [9]
  % Relative activity: 8.65%

## HXQGTFTSDYSKYLDEQAAKEFIAWLMNGGPSSGAPPPSK (acylated Lys at 40) [mt-364]
GLP-1 receptor [10]
  % Relative activity: 355%
  EC50: 0.007 nM
Glucagon receptor [11]
  % Relative activity: 350%
  EC50: 0.0183 nM
GIP receptor [12]
  % Relative activity: 15.7%
GLP-1 receptor [7]
  % Relative activity: 355%
Glucagon receptor [8]
  % Relative activity: 350%
GIP receptor [9]
  % Relative activity: 15.7%
GLP-1 receptor [13]
  % Relative activity: 355%
Glucagon receptor [14]
  % Relative activity: 350%
GIP receptor [15]
  % Relative activity: 15.7%

## Y[Aib]QGTFISDYSIYLDKQAA[Aib]EFVNWLLAGGPSSGAPPPSK(Palmitoyl)-NH2 [mt-358]
GLP-1 receptor [13]
  % Relative activity: 11.9%
Glucagon receptor [14]
  % Relative activity: 710%
GIP receptor [15]
  % Relative activity: 314%

B3: Glucagon (1-29a) Aib2 Aib16 (peptide)
peptide: H[Aib]QGTFTSDYSKYLD[Aib]RRAQDFVQWLMNT-NH2
modifications: N-terminus assumed
SMILES: CSCC[C@H](NC(=O)[C@H](CC(C)C)NC(=O)[C@H](Cc1c[nH]c2ccccc12)NC(=O)[C@H](CCC(N)=O)NC(=O)[C@@H](NC(=O)[C@H](Cc1ccccc1)NC(=O)[C@H](CC(=O)O)NC(=O)[C@H](CCC(N)=O)NC(=O)[C@H](C)NC(=O)[C@H](CCCNC(=N)N)NC(=O)[C@H](CCCNC(=N)N)NC(=O)C(C)(C)NC(=O)[C@H](CC(=O)O)NC(=O)[C@H](CC(C)C)NC(=O)[C@H](Cc1ccc(O)cc1)NC(=O)[C@H](CCCCN)NC(=O)[C@H](CO)NC(=O)[C@H](Cc1ccc(O)cc1)NC(=O)[C@H](CC(=O)O)NC(=O)[C@H](CO)NC(=O)[C@@H](NC(=O)[C@H](Cc1ccccc1)NC(=O)[C@@H](NC(=O)CNC(=O)[C@H](CCC(N)=O)NC(=O)C(C)(C)NC(=O)[C@@H](N)Cc1c[nH]cn1)[C@@H](C)O)[C@@H](C)O)C(C)C)C(=O)N[C@@H](CC(N)=O)C(=O)N[C@H](C(N)=O)[C@@H](C)O
GLP-1 receptor [16]
  EC50: 0.1 nM
Glucagon receptor [17]
  EC50: 0.09 nM

B4: E16K20 Gluc-NH2 Lac (peptide)
peptide: HSQGTFTSDYSKYLDERRAKDFVQWLMNT-NH2
modifications: lactam 16-20; N-terminus assumed
SMILES: CSCC[C@H](NC(=O)[C@H](CC(C)C)NC(=O)[C@H](Cc1c[nH]c2ccccc12)NC(=O)[C@H](CCC(N)=O)NC(=O)[C@@H](NC(=O)[C@H](Cc1ccccc1)NC(=O)[C@H](CC(=O)O)NC(=O)[C@@H]1CCCCNC(=O)CC[C@H](NC(=O)[C@H](CC(=O)O)NC(=O)[C@H](CC(C)C)NC(=O)[C@H](Cc2ccc(O)cc2)NC(=O)[C@H](CCCCN)NC(=O)[C@H](CO)NC(=O)[C@H](Cc2ccc(O)cc2)NC(=O)[C@H](CC(=O)O)NC(=O)[C@H](CO)NC(=O)[C@@H](NC(=O)[C@H](Cc2ccccc2)NC(=O)[C@@H](NC(=O)CNC(=O)[C@H](CCC(N)=O)NC(=O)[C@H](CO)NC(=O)[C@@H](N)Cc2c[nH]cn2)[C@@H](C)O)[C@@H](C)O)C(=O)N[C@@H](CCCNC(=N)N)C(=O)N[C@@H](CCCNC(=N)N)C(=O)N[C@@H](C)C(=O)N1)C(C)C)C(=O)N[C@@H](CC(N)=O)C(=O)N[C@H](C(N)=O)[C@@H](C)O
GLP-1 receptor [18]
  Percent Potency Relative to Native Ligand: 63%
Glucagon receptor [19]
  Percent Potency Relative to Native Ligand: 181%

## HSQGTFTSDYSKYLEERRAQDFVQWLMNT-NH2 [E15, E16 Gluc-NH2]
GLP-1 receptor [20]
  Percent Potency Relative to Native Ligand: 9.2%

B5: Glucagon (1-29a) Aib2 Lys10-Trp-C16 Aib16 Aib20 Cys24 (peptide)
peptide: H[Aib]QGTFTSDK([Trp-Palmitoyl])SKYLD[Aib]RRA[Aib]DFVCWLMNT-NH2
modifications: N-terminus assumed
SMILES: CCCCCCCCCCCCCCCC(=O)N[C@@H](Cc1c[nH]c2ccccc12)C(=O)NCCCC[C@H](NC(=O)[C@H](CC(=O)O)NC(=O)[C@H](CO)NC(=O)[C@@H](NC(=O)[C@H](Cc1ccccc1)NC(=O)[C@@H](NC(=O)CNC(=O)[C@H](CCC(N)=O)NC(=O)C(C)(C)NC(=O)[C@@H](N)Cc1c[nH]cn1)[C@@H](C)O)[C@@H](C)O)C(=O)N[C@@H](CO)C(=O)N[C@@H](CCCCN)C(=O)N[C@@H](Cc1ccc(O)cc1)C(=O)N[C@@H](CC(C)C)C(=O)N[C@@H](CC(=O)O)C(=O)NC(C)(C)C(=O)N[C@@H](CCCNC(=N)N)C(=O)N[C@@H](CCCNC(=N)N)C(=O)N[C@@H](C)C(=O)NC(C)(C)C(=O)N[C@@H](CC(=O)O)C(=O)N[C@@H](Cc1ccccc1)C(=O)N[C@H](C(=O)N[C@@H](CS)C(=O)N[C@@H](Cc1c[nH]c2ccccc12)C(=O)N[C@@H](CC(C)C)C(=O)N[C@@H](CCSC)C(=O)N[C@@H](CC(N)=O)C(=O)N[C@H](C(N)=O)[C@@H](C)O)C(C)C
GLP-1 receptor [5]
  EC50: 1.15 nM
Glucagon receptor [6]
  EC50: 2.06 nM

## HSQGTFTSDYSKYLDSRRAQDFVQWLMNTGPSSGAPPPS (C-terminal amide) [Glucagon-Cex]
Glucagon receptor [2]
  cAMP induction EC50: 0.25 nM
